Test: soluble on expression in E. coli; label from the status in PepcDB or PDB records

Soluble on expression in E. coli, not soluble:
DPLQILGQLTGQLEQQQTAPSGTSAKAPPANDQQAEFVASILGDTEDTWKALFAQAGKQYRDPKLVLFSGQVNSACGFASAAVGPFYCPADQRVYLDMSFFREMETRFAAAGDFAQAYVIAHEIGHHVQTLLGVSAKVDAARRAGQRMEGDNGLLVRQELQADCLAGVWAYQAQKRLNWLEPGDVEEALNAANAIGDDRLQQQGRGRVVPDSFTHGTSAQRVRWFKIGFAEGEVNRCDTF
MIIEERKNHELNLESIDRDLRMENVRQSAEKLGWEHFARSVRRNLLEKRQTLDARTRLDVLGSLVFMKEHLPIDNDATIARKVQQLSEGLGEHCVFSTQNSGFSIRNPDVTIDIGVAEDQISTCKIGYFGQPLTDAPGALALMKNGEFSKLRDSITAILSSLPKEITLSEKNACKEAFRALDQLLIRDAADSSFTAINTGKYGFYAPRNELRSGRIYYVAEPVLIRLAEKEGKTKADASYLDLLPYIEISFFKHDKPSKLPVFTQTGEWSTFNDANVCICVRFNQGFLLSQQTIRKLSHIVPKSPLVRNYVNFYRYMTGRVGVKSNLKLLTQFPDEGDIQQQYQVDSKMLTKEDDVVAMEMYLSDFRDLSKLIETLRSEWKHASLWESILAICESSKGEQKEVNAVDMQLVLRRTEFFLQFDTDYGSMTMQIFEKSPSNYVVKTTSQITGESPSLDFDKMLTEKLNSTWSIPATLTFAITDLKCRINSVLNCVISFDSSSSSDKQHQNYWSISNNNTQLMQSAAQKSAAKCTKKKVTVLEVGPAIEPTQLVYTRENDEEFQGSLLSSFGEVDDYYVKTSTIGRTRPQPRPKREPNQLTSMDMMSAELDKSRHTMEGSMRDAQTSSFLDAARVRMKQSIGAAHAVGLASHQPPASPVAAAAAAPGGPMRHNSYPSGFEPPPSVAPYDFPADPSKKQRKQRAKKQPGEEPPAGRGKGGKKGRGAGAVGAAAAGGRKSAGGAGENPFGMDPMRPPMLQRSSSEQHNPNPHQMSQYQMQQYQQNQQFRMHQMQQQQQQQFQMQSPKNPLVPAYTDEDSDEECDPPPPPKPQVSTSSRMSSVPSHPPPPPQQLGNPMVGYPGMPLQSPNHLPLTPSPLSAPPKPFSPEQQHHFGMKMRETSYWKELERLETKPDVEKLKQQLSSSSSSSQAEASDPPSTSTEAQDPPKPSSSSAPPPPKKKLGLEAAISKIRGQQEQALQKQLQQQESVESELATPHPGSSGAPPLAPHQVNRARNLNDIFDDEADDSSPTADIKPSLQALQKPTDTSSQSTSSEPPPKKEPADEQPEREKEKLILKIPKMLKPVVDDRREDRKERDRDRDRDRDRDEDREKVRDKEDKAQREKDKKEKERERRRQRDRDRTEQKKSDREKEPSKKRKLEKKDEKEKDRREPERKKGKSDGKEYSKASTTSLIPTLSLKNFRIPKKDTVEEEKKDVKEEAPGPSSSTESKKEPPSAAPITRKESTTAPVAPAVQQQQQRKESFTALPSLPEQQQHHREPLLKKKPPLQPPPPPQMTGPPIGIYPGPPAPGNLPGSSRPSGNRKQPLPPPPPMIRGPPPDQMYRDRSGGGGGSMRGGFPPASHYHGGTSGVNKQVASYAQGLPPGMGPPVVKPHGNNYQASQWVRPPTHRDSSHSYHGMPSLGPPQLQREPPAPPPPQMIPLPKDPPVLREHPREHRAHRGGADDDGPDSPEEGTLRIDDE
MFGSSGFGNKSMFGGSNISTSTTTPAANTTQNDDFLVDGAPEDTIQVIKFSPTPQDKPMLACGSWDGTIRVWMFNDANTFEGKAQQNIPAPILDIAWIEDSSKIFIACADKEARLWDLASNQVAVVGTHDGPVKTCHWINGNNYQCLMTGSFDKTLRFWDMKNLPNQTQMAQIQLPERVYAADVLYPMAVVALANKHIKVYNLENGPTEVKDIESQLKFQIRCISIFKDKSNQNPAGFALGSIEGRVAVQYVDVANPKDNFTFKCHRSAELVNGFQEIYAVNDICFHPQHGTLVTIGSDGRYSMWDKDARTKLKTSEPHPMPLTCCDVHSSGAFLVYALGYDWSRGHEGNTQPGSKIVIHKCIEDMKPRPTKK
HVKVGFSPEKLRPYTTMPADFQQFWENQKAELAKFPLTYTKEHVKKYSTDQIDCYLIKLQVNQRGQSIYGYLFYPKKEGKYPVVLCPPGAGIKTIKEPLRHKYYAEQGCIRFEIEIHGLNPEMSEEEFKEISAAFNGRENGYLSNGLDSRDNYYMKRVYLACVRSIDLLTSLPEWDGKNVVVQGGSQGGALALVTAGLDQRVTACVANHPALSDMAGYKAGRAGGYPHFFRNTVDMDTPEKIRTMAYYDVVNFAQLIRADTYMTWGFNDNVCPPTTSYIVYNVLNCPKEALITPINEHWTSSDTEYGHLLWIKKHLK
MTAPPPPLVELPPGSMVERWSITKKLGEGGCGAVYLCTDATGKYALKVEGISEAMQVLKMEVLVLGELTKRGSRHFCKIEDKGRYGSFNYVVMTLVGKSLQDLRKGTAQQCLSLACSLSVGIQSLEALEDLHNIGYLHRDVKPGNYTIGRAELNELRKVYILDFGMARKFTDNNGVIRKPRAAAGFRGTVRYAPIACHKNQELGRKDDVEVWLYMQVELTVGRVPWKEITDMNAVGQAKQAIRNTPEKMFVFPCPANELKEIMKMVDSWDYFADPNYADCYRLMKQTLANCGKPEYPYDWEPGMPLNYMVK

Soluble on expression in E. coli, soluble:
MAASLRLLGAASGLRYWSRRLRPAAGSFAAVCSRSVASKTPVGFIGLGNMGNPMAKNLMKHGYPLIIYDVFPDACKEFQDAGEQVVSSPADVAEKADRIITMLPTSINAIEAYSGANGILKKVKKGSLLIDSSTIDPAVSKELAKEVEKMGAVFMDAPVSGGVGAARSGNLTFMVGGVEDEFAAAQELLGCMGSNVVYCGAVGTGQAAKICNNMLLAISMIGTAEAMNLGIRLGLDPKLLAKILNMSSGRCWSSDTYNPVPGVMDGVPSANNYQGGFGTTLMAKDLGLAQDSATSTKSPILLGSLAHQIYRMMCAKGYSKKDFSSVFQFLREEETF
MTIVIGFEGSANKIGIGIIKDGEVLSNPRRTYITPPGQGFLPGETAKHHRSVILTVLQEALDEAGLKAADIDCVAYTKGPGMGAPLVTVAIVARTVAQLWGKPLLGVNHCIGHIEMGRLITNAQNPTVLYVSGGNTQVIAYSERRYRIFGETIDIAVGNCLDRFARVIKISNDPSPGYNIEQMAKKGNKYIELPYTVKGMDVSFSGILSYIEDAAHKMLSTDQCTPEDLCFSLQETVFAMLVEITERAMAHCGSQEVLIVGGVGCNLRLQEMMGVMCKERGARLFATDESFCIDNGAMIAQAGWEMFRSGHVTELPDSWITQRYRTDEVEVTWRD
MSLQIAANKAVSIDYTLTNDAGDVIDSSAGGAPLVYLHGAGNIIVGLEKALEGKNVGDELSVAIEPEDAYGEYSAELVATLTREMFEGVDELEVGMQFHASAPDGGMQIVTIRDIDGDDVTVDGNHPLAGQRLNFKVKVVDVREANAEEIAHGHIHGEGGHHHEGGSHHHHHH
MRDVLEVLEFPRVRALLAERAKTPLGRELALALAPLPREEAEKRHELTGEALSYPYALPEAGTLREAYGRALAGARLSGPELLKAAKALEEAMALKEELLPLKNALSQVAEGIGDHTPFLERVRKALDEEGAVKDEASPRLAQIRRELRPLRQQILDRLYALMDRHREAFQDRFVTLRRERYCVPVRAGMAQKVPGILLDESESGATLFIEPFSVVKLNNRLQALRLKEEEEVNRILRDLSERLAKDEGVPKTLEALGLLDLVQAQAALARDLGLSRPAFGERYELYRAFHPLIPDAVRNSFALDEKNRILLISGPNMGGKTALLKTLGLAVLMAQSGLFVAAEKALLAWPDRVYADIGDEQSLQENLSTFAGHLRRLREMLEEATSHSLVLIDELGSGTDPEEGAALSQAILEALLERGVKGMVTTHLSPLKAFAQGREGIQNASMRFDLEALRPTYELVLGVPGRSYALAIARRLALPEEVLKRAEALLPEGGRLEALLERLEAERLALEAERERLRRELSQVERLRKALAEREARFEEERAERLKALEEEVRAELLKVEAELKALKEKARTEGKRDALRELMALRERYAKKAPPPPPPPGLAPGVLVEVPSLGKRGRVVELRGEEVLVQVGPLKMSLKPQEVKPLPEAEPGKPLLAKPRREVKEVDLRGLTVAEALLEVDQALEEARALGLSTLRLLHGKGTGALRQAIREALRRDKRVESFADAPPGEGGHGVTVVALRP
MSRAKAAPVAGPEVAANRAGRQARIVAILSSAQVRSQNELAALLAAEGIEVTQATLSRDLEELGAVKLRGADGGTGIYVVPEDGSPVRGVSGGTDRMARLLGELLVSTDDSGNLAVLRTPPGAAHYLASAIDRAALPQVVGTIAGDDTILVVAREPTTGAQLAGMFENLR
